Data published in patent US20120315277A1, “Compositions and Methods for the Therapy and Diagnosis of Influenza” (priority 2011, published 2012).

Molecular target: M2 protein of influenza A/Puerto Rico/8/34 (H1N1) on cells (influenza A virus A/Puerto Rico/8/34 (H1N1)) (UniProt P06821)
Test: FACS, MDCK cells infected with A/Puerto Rico/8/34

Chain of M2 protein of influenza A/Puerto Rico/8/34 (H1N1) on cells (influenza A virus A/Puerto Rico/8/34 (H1N1)) (P06821 whole entry): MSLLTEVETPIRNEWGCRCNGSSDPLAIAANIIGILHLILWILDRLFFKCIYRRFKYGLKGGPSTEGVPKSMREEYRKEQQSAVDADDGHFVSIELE

Q: How did the EC50 (read off the curve) turn out when “14C2 (chimeric mouse V-region/human IgG1 kappa 14C2 antibody)” was run?
A: 0.3 µg/mL
